Measurements from patent CN105646705A.

Target: 原核表达的重组人GFAP蛋白 (PET28a-GFAP, 大肠杆菌BL21表达, Ni-NTA纯化) (human) (UniProt P14136)
Test: direct ELISA, purified GFAP coated at 10 μg/ml, purified antibody diluted 1:200 to 1:12800, goat anti-mouse IgG-HRP, OD450

Chain of UniProt P14136 (P14136 other isoform, or with tags, fused parts or gaps): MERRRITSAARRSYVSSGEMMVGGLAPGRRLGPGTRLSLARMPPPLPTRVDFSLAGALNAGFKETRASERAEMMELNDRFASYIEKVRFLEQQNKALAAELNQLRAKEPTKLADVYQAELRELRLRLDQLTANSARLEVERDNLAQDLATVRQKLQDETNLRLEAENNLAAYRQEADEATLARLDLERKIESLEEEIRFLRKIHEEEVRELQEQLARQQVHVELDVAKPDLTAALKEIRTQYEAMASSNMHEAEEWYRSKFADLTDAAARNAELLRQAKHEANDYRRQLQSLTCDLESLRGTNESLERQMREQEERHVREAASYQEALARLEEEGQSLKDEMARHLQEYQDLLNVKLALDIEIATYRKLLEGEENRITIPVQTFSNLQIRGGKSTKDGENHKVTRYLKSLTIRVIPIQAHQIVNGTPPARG

B1: 小鼠抗人GFAP单克隆抗体 5C8 (杂交瘤细胞株5C8, CGMCC No.6915) (antibody, part only; not given: light chain variable region, V domains shown, part only)
VH: LASTATGVHSQVQLQQPGAELVRPGASVKLSCKASGYTFTSYWMNWVKQRPGQGLEWIGMINPSDSEIQYNQMFKDKATLTVDKSSSTAYIHLTSLTSEDSAVYYCARGLGRYWGQGTTLTVSPASTTPPSV
B1 was tested, and the ELISA滴度 (dilution factor (1:x)) was > 10000.
